Data published in FireProtDB (doi:10.1021/bi0512400).

Settings: Capra hircus; pH 7.5; 25 °C; GdnHCl; CD; Tris 20 mM; Ca2+ 10 mM; whole UniProt chain shown

B1: Alpha-lactalbumin wild type, P00712 (protein)
chain: MMSFVSLLLVGILFHATQAEQLTKCEVFQKLKDLKDYGGVSLPEWVCTAFHTSGYDTQAIVQNNDSTEYGLFQINNKIWCKDDQNPHSRNICNISCDKFLDDDLTDDIVCAKKILDKVGINYWLAHKALCSEKLDQWLCEKL
denaturant m value: 3 kcal/mol/M
unfolding free energy: 10.2 kcal/mol
